Laboratory results reported in the array DNA melting data of Ke et al..

Experiment: melting temperature; melt of duplexes
Details: sodium 0.0675 M; strand 1 µM

First: CGACGTGCCCGATGTGCTG+CAGCACATAGGGCACGTCG ((((((((((.((((((((+)))))))).))))))))))
Second: CGACGTGCGTCATGTGCTG+CAGCACATCTAGCACGTCG ((((((((...((((((((+))))))))...))))))))
The Tm of the first is higher: 61.5 °C for the first, 51.5 °C for the second.

First: CGACGTGCAAGATGTGCTG+CAGCACATGTTGCACGTCG ((((((((((.((((((((+)))))))).))))))))))
Second: CGACGTGCGGTATGTGCTG+CAGCACATATTGCACGTCG ((((((((..(((((((((+)))))))))..))))))))
The Tm of the first is higher: 57.8 °C for the first, 55 °C for the second.

Going from “CGACGTGCTATATGTGCTG+CAGCACATATCGCACGTCG ((((((((.((((((((((+)))))))))).))))))))” to “CGACGTGCCATATGTGCTG+CAGCACATGGGGCACGTCG (((((((((..((((((((+))))))))..)))))))))”, the Tm rises from 54.9 °C to 56.7 °C.

Going from “CGACGTGCCTAATGTGCTG+CAGCACATTATGCACGTCG ((((((((.((((((((((+)))))))))).))))))))” to “CGACGTGCAGTATGTGCTG+CAGCACATGACGCACGTCG ((((((((...((((((((+))))))))...))))))))”, the Tm falls from 54 °C to 49.1 °C.

Going from “CGACGTGCTACATGTGCTG+CAGCACATATGGCACGTCG ((((((((.(.((((((((+)))))))).).))))))))” to “CGACGTGCACGATGTGCTG+CAGCACATTCCGCACGTCG ((((((((...((((((((+))))))))...))))))))”, the Tm falls from 51.3 °C to 44.5 °C.

Going from “CGACGTGCCGTATGTGCTG+CAGCACATGGGGCACGTCG (((((((((..((((((((+))))))))..)))))))))” to “CGACGTGCTGCATGTGCTG+CAGCACATTTGGCACGTCG ((((((((...((((((((+))))))))...))))))))”, the Tm falls from 57.1 °C to 49.1 °C.

First: CGACGTGCGACATGTGCTG+CAGCACATTCAGCACGTCG ((((((((...((((((((+))))))))...))))))))
Second: CGACGTGCCTTATGTGCTG+CAGCACATCTCGCACGTCG ((((((((...((((((((+))))))))...))))))))
The Tm of the first is higher: 52.4 °C for the first, 46.6 °C for the second.

Compared with “CGACGTGCCCTATGTGCTG+CAGCACATCTTGCACGTCG ((((((((...((((((((+))))))))...))))))))”, “CGACGTGCTTCATGTGCTG+CAGCACATTCAGCACGTCG (((((((((..((((((((+))))))))..)))))))))” is higher in Tm: 47.3 °C for the first, 50.7 °C for the second.

First: CGACGTGCACTATGTGCTG+CAGCACATTTGGCACGTCG ((((((((...((((((((+))))))))...))))))))
Second: CGACGTGCCTGATGTGCTG+CAGCACATCAGGCACGTCG (((((((((((((((((((+)))))))))))))))))))
The Tm of the first is lower: 45.3 °C for the first, 65.9 °C for the second.

Going from “CGACGTGCAACATGTGCTG+CAGCACATGACGCACGTCG ((((((((..(((((((((+)))))))))..))))))))” to “CGACGTGCCATATGTGCTG+CAGCACATTCCGCACGTCG ((((((((...((((((((+))))))))...))))))))”, the Tm falls from 50.9 °C to 48.1 °C.

Compared with “CGACGTGCTTAATGTGCTG+CAGCACATGCAGCACGTCG (((((((((..((((((((+))))))))..)))))))))”, “CGACGTGCGCTATGTGCTG+CAGCACATTGTGCACGTCG ((((((((.(.((((((((+)))))))).).))))))))” is lower in Tm: 52 °C for the first, 51.9 °C for the second.

Going from “CGACGTGCCTTATGTGCTG+CAGCACATGCCGCACGTCG ((((((((...((((((((+))))))))...))))))))” to “CGACGTGCCGAATGTGCTG+CAGCACATAAGGCACGTCG (((((((((..((((((((+))))))))..)))))))))”, the Tm rises from 46.9 °C to 58 °C.

Compared with “CGACGTGCACAATGTGCTG+CAGCACATTGAGCACGTCG ((((((((.((((((((((+)))))))))).))))))))”, “CGACGTGCTGTATGTGCTG+CAGCACATAGTGCACGTCG ((((((((..(((((((((+)))))))))..))))))))” is lower in Tm: 56.9 °C for the first, 48 °C for the second.

Compared with “CGACGTGCTCGATGTGCTG+CAGCACATTCTGCACGTCG ((((((((...((((((((+))))))))...))))))))”, “CGACGTGCGATATGTGCTG+CAGCACATGATGCACGTCG ((((((((...((((((((+))))))))...))))))))” is higher in Tm: 49.4 °C for the first, 53.8 °C for the second.

Compared with “CGACGTGCGTCATGTGCTG+CAGCACATGAAGCACGTCG ((((((((.((((((((((+)))))))))).))))))))”, “CGACGTGCGAGATGTGCTG+CAGCACATAATGCACGTCG ((((((((...((((((((+))))))))...))))))))” is lower in Tm: 59.4 °C for the first, 52 °C for the second.

Compared with “CGACGTGCTCGATGTGCTG+CAGCACATCTGGCACGTCG ((((((((..(((((((((+)))))))))..))))))))”, “CGACGTGCATGATGTGCTG+CAGCACATTCAGCACGTCG ((((((((...((((((((+))))))))...))))))))” is lower in Tm: 54.3 °C for the first, 51.1 °C for the second.

Going from “CGACGTGCTCCATGTGCTG+CAGCACATCGTGCACGTCG ((((((((.(.((((((((+)))))))).).))))))))” to “CGACGTGCAAGATGTGCTG+CAGCACATGGCGCACGTCG ((((((((...((((((((+))))))))...))))))))”, the Tm rises from 44.7 °C to 51.3 °C.

First: CGACGTGCTGAATGTGCTG+CAGCACATGTAGCACGTCG (((((((((..((((((((+))))))))..)))))))))
Second: CGACGTGCGAGATGTGCTG+CAGCACATGACGCACGTCG (((((((((..((((((((+))))))))..)))))))))
The Tm of the first is higher: 54.3 °C for the first, 53.2 °C for the second.

Going from “CGACGTGCCGAATGTGCTG+CAGCACATTGGGCACGTCG (((((((((.(((((((((+))))))))).)))))))))” to “CGACGTGCGCGATGTGCTG+CAGCACATTCGGCACGTCG ((((((((...((((((((+))))))))...))))))))”, the Tm falls from 59 °C to 53.2 °C.

Compared with “CGACGTGCTCGATGTGCTG+CAGCACATTTGGCACGTCG ((((((((...((((((((+))))))))...))))))))”, “CGACGTGCGCCATGTGCTG+CAGCACATCGTGCACGTCG ((((((((.(.((((((((+)))))))).).))))))))” is lower in Tm: 50.3 °C for the first, 47.7 °C for the second.

Compared with “CGACGTGCGCGATGTGCTG+CAGCACATGTCGCACGTCG (((((((((..((((((((+))))))))..)))))))))”, “CGACGTGCAGAATGTGCTG+CAGCACATGCAGCACGTCG ((((((((.(.((((((((+)))))))).).))))))))” is lower in Tm: 55.5 °C for the first, 54.6 °C for the second.

Compared with “CGACGTGCTGAATGTGCTG+CAGCACATCTTGCACGTCG ((((((((...((((((((+))))))))...))))))))”, “CGACGTGCACCATGTGCTG+CAGCACATCCTGCACGTCG (((((((((..((((((((+))))))))..)))))))))” is lower in Tm: 50.5 °C for the first, 44.7 °C for the second.

Compared with “CGACGTGCTGGATGTGCTG+CAGCACATATGGCACGTCG ((((((((...((((((((+))))))))...))))))))”, “CGACGTGCACCATGTGCTG+CAGCACATCATGCACGTCG (((((((((..((((((((+))))))))..)))))))))” is lower in Tm: 52.7 °C for the first, 45.6 °C for the second.

Going from “CGACGTGCTCGATGTGCTG+CAGCACATTCGGCACGTCG ((((((((...((((((((+))))))))...))))))))” to “CGACGTGCCACATGTGCTG+CAGCACATAGTGCACGTCG ((((((((...((((((((+))))))))...))))))))”, the Tm falls from 52.3 °C to 46.9 °C.

First: CGACGTGCCATATGTGCTG+CAGCACATACAGCACGTCG ((((((((..(((((((((+)))))))))..))))))))
Second: CGACGTGCTTAATGTGCTG+CAGCACATTTTGCACGTCG ((((((((..(((((((((+)))))))))..))))))))
The Tm of the first is lower: 49.9 °C for the first, 52.5 °C for the second.

Compared with “CGACGTGCAGAATGTGCTG+CAGCACATAAGGCACGTCG ((((((((...((((((((+))))))))...))))))))”, “CGACGTGCTTAATGTGCTG+CAGCACATGAAGCACGTCG ((((((((((.((((((((+)))))))).))))))))))” is higher in Tm: 51 °C for the first, 57.4 °C for the second.

First: CGACGTGCGCTATGTGCTG+CAGCACATAGCGCACGTCG (((((((((((((((((((+)))))))))))))))))))
Second: CGACGTGCATTATGTGCTG+CAGCACATTTCGCACGTCG ((((((((...((((((((+))))))))...))))))))
The Tm of the first is higher: 66.4 °C for the first, 48.3 °C for the second.

First: CGACGTGCCTAATGTGCTG+CAGCACATTCTGCACGTCG ((((((((..(((((((((+)))))))))..))))))))
Second: CGACGTGCTTAATGTGCTG+CAGCACATTTGGCACGTCG ((((((((..(((((((((+)))))))))..))))))))
The Tm of the first is lower: 51 °C for the first, 53.4 °C for the second.

Going from “CGACGTGCATAATGTGCTG+CAGCACATACAGCACGTCG ((((((((...((((((((+))))))))...))))))))” to “CGACGTGCCACATGTGCTG+CAGCACATTGCGCACGTCG ((((((((...((((((((+))))))))...))))))))”, the Tm rises from 48.2 °C to 50.5 °C.

Compared with “CGACGTGCACAATGTGCTG+CAGCACATCAAGCACGTCG ((((((((...((((((((+))))))))...))))))))”, “CGACGTGCGCCATGTGCTG+CAGCACATACGGCACGTCG ((((((((...((((((((+))))))))...))))))))” is higher in Tm: 46.2 °C for the first, 46.6 °C for the second.

Going from “CGACGTGCTGTATGTGCTG+CAGCACATGGTGCACGTCG ((((((((...((((((((+))))))))...))))))))” to “CGACGTGCAACATGTGCTG+CAGCACATATAGCACGTCG ((((((((.(.((((((((+)))))))).).))))))))”, the Tm rises from 47.2 °C to 49.1 °C.

Going from “CGACGTGCGGTATGTGCTG+CAGCACATTGGGCACGTCG ((((((((...((((((((+))))))))...))))))))” to “CGACGTGCCGCATGTGCTG+CAGCACATTCGGCACGTCG ((((((((((.((((((((+)))))))).))))))))))”, the Tm rises from 49.8 °C to 59.1 °C.

Compared with “CGACGTGCAAAATGTGCTG+CAGCACATGAAGCACGTCG ((((((((...((((((((+))))))))...))))))))”, “CGACGTGCCGGATGTGCTG+CAGCACATGGAGCACGTCG ((((((((...((((((((+))))))))...))))))))” is lower in Tm: 53.7 °C for the first, 51 °C for the second.

Compared with “CGACGTGCCTTATGTGCTG+CAGCACATATCGCACGTCG ((((((((..(((((((((+)))))))))..))))))))”, “CGACGTGCCTCATGTGCTG+CAGCACATCTAGCACGTCG ((((((((...((((((((+))))))))...))))))))” is lower in Tm: 49.9 °C for the first, 47.8 °C for the second.

Going from “CGACGTGCGCAATGTGCTG+CAGCACATGCCGCACGTCG (((((((((..((((((((+))))))))..)))))))))” to “CGACGTGCGTTATGTGCTG+CAGCACATACAGCACGTCG ((((((((..(((((((((+)))))))))..))))))))”, the Tm falls from 56.6 °C to 53.3 °C.

Compared with “CGACGTGCCACATGTGCTG+CAGCACATACTGCACGTCG ((((((((...((((((((+))))))))...))))))))”, “CGACGTGCTGCATGTGCTG+CAGCACATGGTGCACGTCG ((((((((..(((((((((+)))))))))..))))))))” is higher in Tm: 47.2 °C for the first, 54.2 °C for the second.
